B1: receptor-associated protein (RAP) (other, UniProt P30533 35-357, looked up)
chain: YSREKNQPKPSPKRESGEEFRMEKLNQLWEKAQRLHLPPVRLAELHADLKIQERDELAWKKLKLDGLDEDGEKEARLIRNLNVILAKYGLDGKKDARQVTSNSLSGTQEDGLDDPRLEKLWHKAKTSGKFSGEELDKLWREFLHHKEKVHEYNVLLETLSRTEEIHENVISPSDLSDIKGSVLHSRHTELKEKLRSINQGLDRLRRVSHQGYSTEAEFEEPRVIDLWDLAQSANLTDKELEAFREELKHFEAKIEKHNHYQKQLEIAHEKLRHAESVGDGERVSRSREKHALLEGRTKELGYTVKKHLQDLSGRISRARHNEL
B2: ovalbumin (other, UniProt P01012 2-386, looked up)
chain: GSIGAASMEFCFDVFKELKVHHANENIFYCPIAIMSALAMVYLGAKDSTRTQINKVVRFDKLPGFGDSIEAQCGTSVNVHSSLRDILNQITKPNDVYSFSLASRLYAEERYPILPEYLQCVKELYRGGLEPINFQTAADQARELINSWVESQTNGIIRNVLQPSSVDSQTAMVLVNAIVFKGLWEKAFKDEDTQAMPFRVTEQESKPVQMMYQIGLFRVASMASEKMKILELPFASGTMSMLVLLPDEVSGLEQLESIINFEKLTEWTSSNVMEERKIKVYLPRMKMEEKYNLTSVLMAMGITDVFSSSANLSGISSAESLKISQAVHAAHAEINEAGREVVGSAEAGVDAASVSEEFRADHPFLFCIKHIATNAVLFFGRCVSP
B3: angiostatin (other, UniProt P00747 98-459, looked up)
chain: VYLSECKTGNGKNYRGTMSKTKNGITCQKWSSTSPHRPRFSPATHPSEGLEENYCRNPDNDPQGPWCYTTDPEKRYDYCDILECEEECMHCSGENYDGKISKTMSGLECQAWDSQSPHAHGYIPSKFPNKNLKKNYCRNPDRELRPWCFTTDPNKRWELCDIPRCTTPPPSSGPTYQCLKGTGENYRGNVAVTVSGHTCQHWSAQTPHTHNRTPENFPCKNLDENYCRNPDGKRAPWCHTTNSQVRWEYCKIPSCDSSPVSTEQLAPTAPPELTPVVQDCYHGDGQSYRGTSSTTTTGKKCQSWSSMTPHRHQKTPENYPNAGLTMNYCRNPDADKGPWCFTTDPSVRWEYCNLKKCSGTEA
notes: domain: angiostatin (plasminogen fragment)
B4: tissue plasminogen activator (tPA) (enzyme, UniProt P00750 36-562, looked up)
chain: SYQVICRDEKTQMIYQQHQSWLRPVLRSNRVEYCWCNSGRAQCHSVPVKSCSEPRCFNGGTCQQALYFSDFVCQCPEGFAGKCCEIDTRATCYEDQGISYRGTWSTAESGAECTNWNSSALAQKPYSGRRPDAIRLGLGNHNYCRNPDRDSKPWCYVFKAGKYSSEFCSTPACSEGNSDCYFGNGSAYRGTHSLTESGASCLPWNSMILIGKVYTAQNPSAQALGLGKHNYCRNPDGDAKPWCHVLKNRRLTWEYCDVPSCSTCGLRQYSQPQFRIKGGLFADIASHPWQAAIFAKHRRSPGERFLCGGILISSCWILSAAHCFQERFPPHHLTVILGRTYRVVPGEEEQKFEVEKYIVHKEFDDDTYDNDIALLQLKSDSSRCAQESSVVRTVCLPPADLQLPDWTECELSGYGKHEALSPFYSERLKEAHVRLYPSSRCTSQHLLNRTVTDNMLCAGDTRSGGPQANLHDACQGDSGGPLVCLNDGRMTLVGIISWGLGCGQKDVPGVYTKVTNYLDWIRDNMRP
notes: Bought reagent
B5: Soluble human recombinant p97 (melanotransferrin) (other)
chain: GMEVRWCATSDPEQHKCGNMSEAFREAGIQPSLLCVRGTSADHCVQLIAAQEADAITLDGGAIYEAGKEHGLKPVVGEVYDQEVGTSYYAVAVVRRSSHVTIDTLKGVKSCHTGINRTVGWNVPVGYLVESGRLSVMGCDVLKAVSDYFGGSCVPGAGETSYSESLCRLCRGDSSGEGVCDKSPLERYYDYSGAFRCLAEGAGDVAFVKHSTVLENTDGKTLPSWGQALLSQDFELLCRDGSRADVTEWRQCHLARVPAHAVVVRADTDGGLIFRLLNEGQRLFSHEGSSFQMFSSEAYGQKDLLFKDSTSELVPIATQTYEAWLGHEYLHAMKGLLCDPNRLPPYLRWCVLSTPEIQKCGDMAVAFRRQRLKPEIQCVSAKSPQHCMERIQAEQVDAVTLSGEDIYTAGKKYGLVPAAGEHYAPEDSSNSYYVVAVVRRDSSHAFTLDELRGKRSCHAGFGSPAGWDVPVGALIQRGFIRPKDCDVLTAVSEFFNASCVPVNNPKNYPSSLCALCVGDEQGRNKCVGNSQERYYGYRGAFRCLVENAGDVAFVRHTTVFDNTNGHNSEPWAAELRSEDYELLCPNGARAEVSQFAACNLAQIPPHAVMVRPDTNIFTVYGLLDKAQDLFGDDHNKNGFKMFDSSNYHGQDLLFKDATVRAVPVGEKTTYRGWLGLDYVAALEGMSSQQCSG
notes: Provided by Biomarin Pharmaceutical Inc; also called soluble p97; MTf

Tests used:
[1] = molecular target: B5; assay: SPR (BIAcore), RAP injected over immobilised p97
Protocol: (§1) Ringer solution or a 50 mM Tris/HCl buffer (pH 7.5) containing 150 mM NaCl and 50 mM CaCl₂ is used as the eluent buffer. Proteins are diluted in the corresponding eluent buffer and injected onto the sensor chip surface. Protein interactions are analyzed using both the Langmuir binding model, which is the simplest model for 1:1 interaction between analyte and immobilized ligand, and a two-state conformational change model which describes a 1:1 binding of analyte to immobilized ligand followed by a conformational change.
(§2) Transcytosis experiments are performed at 37° C. for 2 hrs. […] At the end of the experiment, radiolabelled proteins are measured in the lower chamber of each well by TCA precipitation.

[2] = molecular target: B5; assay: not described (Discussion; presumably SPR)
[3] = molecular target: B5; assay: SPR (BIAcore), angiostatin injected over immobilised p97
Protocol: as §1
(§3) The SPR response for these proteins is plotted in RU as a function of time.
(§4) About 8-10 ng/mm² of PAI-1 was also immobilized onto another well of a sensor chip surface using NHS/EDC coupling conditions.

[4] = molecular target: B5; assay: SPR (BIAcore), tPA injected over immobilised p97
Protocol: as §1, §3, §4

[5] = molecular target: T1, plasminogen (UniProt P00747 20-810); assay: SPR (BIAcore), plasminogen over immobilised p97, two state conformational change model (apparent KD)
T1 construct: Bought reagent; also called Plg; glu-plasminogen
Protocol: as §1, §3, §4

[6] = molecular target: T1, plasminogen; assay: SPR (BIAcore), plasminogen over immobilised p97, two state conformational change model (ka1)
Protocol: as §1, §3, §4

[7] = molecular target: the molecule itself; assay: SPR (BIAcore), soluble p97 injected over p97 immobilised on a CM5 chip
Protocol: as §1, §2

[8] = molecular target: plasmin (UniProt P00747 97-810, limits assumed); assay: SPR (BIAcore), plasmin injected over immobilised p97
Protocol: as §1, §3, §4

[9] = molecular target: T1, plasminogen; assay: cell-based or functional assay
[10] = molecular target: T1, plasminogen; assay: SPR (BIAcore), plasminogen over immobilised p97, two state conformational change model (kd1)
Protocol: as §1, §3, §4

[11] = molecular target: T2, pro-urokinase plasminogen activator (pro-uPA) (UniProt P00749 21-431, limits assumed); assay: SPR (BIAcore), two state conformational change model; text value differs from Table 3
T2 construct: Bought reagent; also called sc-uPA; scu-PA
Protocol: (§5) Protein interactions are analyzed using both the Langmuir binding model, which is the simplest model for 1:1 interaction between analyte and immobilized ligand, and a two-state conformational change model which describes a 1:1 binding of analyte to immobilized ligand followed by a conformational change.
as §3, §4

[12] = molecular target: T2, pro-urokinase plasminogen activator …; assay: SPR (BIAcore), pro-uPA over immobilised p97, two state conformational change model (apparent KD)
Protocol: as §5, §3, §4

[13] = molecular target: T1, plasminogen; assay: SPR (BIAcore), various concentrations of p97 injected over immobilised plasminogen; plasminogen immobilized, p97 injected
Protocol: as §1

[14] = molecular target: T2, pro-urokinase plasminogen activator …; assay: SPR (BIAcore), pro-uPA over immobilised p97, two state conformational change model (ka1)
Protocol: as §5, §3, §4

[15] = molecular target: T2, pro-urokinase plasminogen activator …; assay: SPR (BIAcore), pro-uPA over immobilised p97, two state conformational change model (kd1)
Protocol: as §5, §3, §4

[16] = molecular target: T1, plasminogen; assay: SPR (BIAcore), p97 over immobilised plasminogen, two state conformation change model
Protocol: as §1

T1 sequence (P00747 20-810 limits assumed): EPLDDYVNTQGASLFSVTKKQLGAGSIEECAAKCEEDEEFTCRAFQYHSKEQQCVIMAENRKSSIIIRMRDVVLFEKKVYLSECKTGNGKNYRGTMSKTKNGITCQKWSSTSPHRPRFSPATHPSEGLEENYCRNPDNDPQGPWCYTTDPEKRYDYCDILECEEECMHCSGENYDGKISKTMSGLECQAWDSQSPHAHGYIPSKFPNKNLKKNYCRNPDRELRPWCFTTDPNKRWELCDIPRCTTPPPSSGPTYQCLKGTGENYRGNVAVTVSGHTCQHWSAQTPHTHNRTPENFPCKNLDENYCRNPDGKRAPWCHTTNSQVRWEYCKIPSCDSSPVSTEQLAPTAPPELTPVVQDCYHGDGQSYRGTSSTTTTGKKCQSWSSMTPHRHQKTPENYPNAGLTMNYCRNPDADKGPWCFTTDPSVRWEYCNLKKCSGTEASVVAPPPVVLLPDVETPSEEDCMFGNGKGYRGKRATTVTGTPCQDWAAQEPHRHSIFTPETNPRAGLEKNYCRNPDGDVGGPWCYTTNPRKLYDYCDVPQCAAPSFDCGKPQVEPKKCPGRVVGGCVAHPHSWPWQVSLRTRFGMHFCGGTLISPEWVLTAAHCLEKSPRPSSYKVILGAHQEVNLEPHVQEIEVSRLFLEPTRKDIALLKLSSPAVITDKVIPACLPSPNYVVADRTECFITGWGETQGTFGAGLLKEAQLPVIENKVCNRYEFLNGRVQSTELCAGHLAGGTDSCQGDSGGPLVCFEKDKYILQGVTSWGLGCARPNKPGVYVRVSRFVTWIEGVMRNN
Chain of plasmin (P00747 97-810 limits assumed): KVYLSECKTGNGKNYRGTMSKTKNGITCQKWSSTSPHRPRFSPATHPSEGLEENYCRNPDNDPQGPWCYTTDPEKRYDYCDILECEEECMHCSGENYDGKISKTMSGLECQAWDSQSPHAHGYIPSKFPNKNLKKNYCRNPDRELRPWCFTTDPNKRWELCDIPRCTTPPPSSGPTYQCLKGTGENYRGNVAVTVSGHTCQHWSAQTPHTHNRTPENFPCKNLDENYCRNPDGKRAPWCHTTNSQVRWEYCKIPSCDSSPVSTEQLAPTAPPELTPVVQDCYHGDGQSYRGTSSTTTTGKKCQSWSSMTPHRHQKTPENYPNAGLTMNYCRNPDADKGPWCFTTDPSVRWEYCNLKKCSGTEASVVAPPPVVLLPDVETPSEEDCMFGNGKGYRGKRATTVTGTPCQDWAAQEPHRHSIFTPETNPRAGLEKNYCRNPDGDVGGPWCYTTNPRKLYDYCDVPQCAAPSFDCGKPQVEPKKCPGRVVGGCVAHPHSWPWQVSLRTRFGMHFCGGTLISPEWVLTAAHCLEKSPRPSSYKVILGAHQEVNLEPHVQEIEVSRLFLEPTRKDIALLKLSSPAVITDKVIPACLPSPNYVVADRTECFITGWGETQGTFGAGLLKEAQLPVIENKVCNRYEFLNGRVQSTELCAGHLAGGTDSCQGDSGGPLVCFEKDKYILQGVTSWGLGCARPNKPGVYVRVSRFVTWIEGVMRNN

B1: no binding (tested: 0.05 µg/µl) [1].

B2: no binding [2].

B3: no binding (tested: 0.05 µg/µl) [3].

B4: no binding (tested: 0.05 µg/µl) [4].

For B5, the Kd [5] was 350 nM, the kon [6] was 21000 M⁻¹ s⁻¹ and the binding result [7] was “no binding (tested: 0.05 µg/µl (5 µg/100 µl))”. For the same binder, the binding result [8] was “no binding (tested: 0.05 µg/µl)”, the “increase of plasminogen activation by tPA after 180 minutes (VLK-peptide hydrolysis)” value [9] was 6 fold and the “increase of plasminogen activation by tPA in the presence of p97 (VLK peptide hydrolysis)” value [9] was 4 fold. For the same binder, the koff [10] was 0.043 s⁻¹, the kon [11] was 6600 M⁻¹ s⁻¹ and the Kd [12] was 65 nM. It also gave a Kd [13] of 275 nM, a kon [14] of 6620 M⁻¹ s⁻¹ and a koff [15] of 0.0017 s⁻¹. The Kd [16] was 260 nM.
